Experimental data published in patent US20190359710A1.

Legend:
[1] = molecular target: CD33 and CD123 together on double-positive human AML cells; assay: calibrated flow cytometry on MOLM13 cells (CD33/CD123 double-positive)
[2] = molecular target: CD33 and CD123 together on double-positive human AML cells; assay: cell-based or functional assay

B1: candidate triplebody hu[33-ds16-ds123RK] before polishing of the sequence (protein, not shown: small tags and cut ends)
chain: EVQLVESGGGLIQPGGSLRLSCAASGFPLTSYGVSWVRQPPGKGLEWLGVIWGDGSTNYHSALISRFTISRDNSKNTLYLQMNSLRAEDTAVYYCARDTYYPYYAMDYWGQGTTVTVSSGGGGSGGGGSGGGGSDIQMTQSPSSLSASVGDRVTITCKASQDVSTAVAWYQQKPGKAPKLLIYSASYRYTGVPSRFSGSGSGTDFTLTISSLQPEDFATYYCQQHYSTPLTFGQGTKLEIKRGGGGSGGGGSGGGGSGGGGSDIVLTQSPSSLSASVGDRVTITCKASQSVDFDGDSFMNWYQQKPGKAPKLLIYTTSNLESGVPSRFSASGSGTDFTLTISSLQPEDFATYYCQQSNEDPYTFGCGTKVEIKRGGGGSGGGGSGGGGSGGGGSEVQLVESGGGDVQPGGSLRLSCAFSGFSLRTSGMGVGWIRQAPGKCLEWVAHIWWDDDKRYNPSVKGRFTISKDTSSNTVYLQMNSLRAEDTAVYYCAQINPAWFAYWGQGTLVTVSSGGGGSGGGGSGGGGSGGGGSEVQLVESGGGLVQPGGSLRLSCAASGFTFTDYYMSWVRQAPGKCLEWLALIRSKADGYTTEYSASVKGRFTISRDDSKNSLYLQMNSLKTEDTAVYYCARDAAYYSYYSPEGAMDYWGQGTSVTVSSGGGGSGGGGSGGGGSDIQMTQSPSSLSASVGDRVTITCKASQNVDSAVAWYQQKPGKAPKALIYSASYRYSGVPSRFSGSGSGTDFTLTISSLQPEDFATYYCQQYYSTPWTFGCGTKVEIKR
B1 gave a Kd [1] of 11 nM.

B2: single chain triplebody SPM-2, hu(33-ds16-ds123RK) (protein)
chain: EVQLVESGGGLIQPGGSLRLSCAASGFPLTSYGVSWVRQPPGKGLEWLGVIWGDGSTNYHSALISRFTISRDNSKNTLYLQMNSLRAEDTAVYYCARDTYYPYYAMDYWGQGTTVTVSSGGGGSGGGGSGGGGSDIQMTQSPSSLSASVGDRVTITCKASQDVSTAVAWYQQKPGKAPKLLIYSASYRYTGVPSRFSGSGSGTDFTLTISSLQPEDFATYYCQQHYSTPLTFGQGTKLEIKRGGGGSGGGGSGGGGSGGGGSDIVLTQSPSSLSASVGDRVTITCKASQSVDFDGDSFMNWYQQKPGKAPKLLIYTTSNLESGVPSRFSASGSGTDFTLTISSLQPEDFATYYCQQSNEDPYTFGCGTKVEIKRGGGGSGGGGSGGGGSGGGGSEVQLVESGGGDVQPGGSLRLSCAFSGFSLRTSGMGVGWIRQAPGKCLEWVAHIWWDDDKRYNPSVKGRFTISKDTSSNTVYLQMNSLRAEDTAVYYCAQINPAWFAYWGQGTLVTVSSGGGGSGGGGSGGGGSGGGGSEVQLVESGGGLVQPGGSLRLSCAASGFTFTDYYMSWVRQAPGKCLEWLALIRSKADGYTTEYSASVKGRFTISRDDSKNSLYLQMNSLKTEDTAVYYCARDAAYYSYYSPEGAMDYWGQGTSVTVSSGGGGSGGGGSGGGGSDIQMTQSPSSLSASVGDRVTITCKASQNVDSAVAWYQQKPGKAPKALIYSASYRYSGVPSRFSGSGSGTDFTLTISSLQPEDFATYYCQQYYSTPWTFGCGTKVEIKRGGGGSHHHHHH
B2 gave a % specific lysis of MOLM-13 cells at 1 nM SPM-2, 4 hr time point [2] of 30.7%, a Biol. Activity EC50 [pM], redirected lysis (RDL), 3 h, E:T=10:1 (MNC:MOLM-13) [2] of 14 pM and an EC50 (pM), RDL cytolysis of primary MNCs of AML patient P1 with LAK cells [2] of 131 pM. For the same binder, the EC50 (pM), RDL cytolysis of primary MNCs of AML patient P2 with LAK cells [2] was 20 pM, the EC50 (pM), RDL cytolysis of primary MNCs of AML patient P3 with LAK cells [2] was 67 pM and the EC50 (pM), RDL cytolysis of primary MNCs of AML patient P4 with LAK cells [2] was 32 pM. For the same binder, the EC50 (pM), RDL cytolysis of primary MNCs of AML patient P5 with LAK cells [2] was 242 pM, the EC50 (pM), RDL cytolysis of primary MNCs of AML patient P6 with LAK cells [2] was 155 pM and the EC50 (pM), RDL cytolysis of primary MNCs of AML patient P7 with LAK cells [2] was 79 pM. The EC50 (pM), RDL cytolysis of primary MNCs of AML patient P8 with LAK cells [2] was 133 pM, the EC50 (pM), RDL cytolysis of primary MNCs of AML patient P9 with LAK cells [2] was 166 pM and the EC50 (pM), RDL cytolysis of primary MNCs of AML patient P10 with LAK cells [2] was 51 pM. The EC50 (pM), RDL cytolysis of primary MNCs of AML patient P11 with LAK cells [2] was 1080 pM, the EC50 (pM), RDL cytolysis of primary MNCs of AML patient P12 with LAK cells [2] was 38 pM and the EC50 (pM), RDL cytolysis of primary MNCs of AML patient P13 with LAK cells [2] was 245 pM. It also gave an EC50 (pM), RDL cytolysis of primary MNCs of AML patient P14 with LAK cells [2] of 229 pM, an EC50 (pM), RDL cytolysis of primary MNCs of AML patient P15 with LAK cells [2] of 177 pM and an EC50 (pM), RDL cytolysis of primary MNCs of AML patient P16 with LAK cells [2] of 758 pM. For the same binder, the EC50 (pM), RDL cytolysis of primary MNCs of AML patient P17 with LAK cells [2] was 125 pM, the EC50 (pM), RDL cytolysis of primary MNCs of AML patient P18 with LAK cells [2] was 221 pM and the EC50 (pM), RDL cytolysis of primary MNCs of AML patient P19 with LAK cells [2] was 406 pM. For the same binder, the EC50 (pM), RDL cytolysis of primary MNCs of AML patient P20 with LAK cells [2] was 251 pM, the EC50 (pM), RDL cytolysis of primary MNCs of AML patient P21 with LAK cells [2] was 22 pM and the EC50 (pM), RDL cytolysis of primary MNCs of AML patient P22 with LAK cells [2] was 225 pM. It also gave an EC50 (pM), RDL cytolysis of primary MNCs of AML patient P23 with LAK cells [2] of 476 pM, an EC50 (pM), RDL cytolysis of primary MNCs of AML patient P24 with LAK cells [2] of 127 pM and an EC50 (pM), RDL cytolysis of primary MNCs of AML patient P25 with LAK cells [2] of 541 pM. For the same binder, the EC50 (pM), RDL cytolysis of primary MNCs of AML patient P26 with LAK cells [2] was 58 pM, the EC50 (pM), RDL cytolysis of primary MNCs of AML patient P27 with LAK cells [2] was 10 pM and the EC50 (pM), RDL cytolysis of primary MNCs of AML patient P28 with LAK cells [2] was 560 pM. It also gave an EC50 (pM), RDL cytolysis of primary MNCs of AML patient P29 with LAK cells [2] of 70 pM, an EC50 (pM), RDL lysis of CD34-enriched MNCs of AML patient P9 [2] of 43 pM and an EC50 (pM), RDL lysis of CD34-enriched MNCs of AML patient P11 [2] of 681 pM. It also gave an EC50, standard RDL assay, MOLM-13 targets, thawed LAK cells, 4 hr, MNC:Target 10:1 [2] of 0.024 nM.
